Results on six molecules are retold here after patent publication US20250011447A1 (EXCYTE BIOPHARMA, published 2025).

To fix the notation:
T1: BCMA-Fc fusion protein (Acrobiosystems, catalog number BC7-H5254) (human, UniProt Q02223 1-54, biotin cross-linked, 3 to 5 biotin molecules per molecule, where the biotinylated antigen is used (ELISA of Table 3); sites not stated)
T1 construct: Bought protein; also called BCMA antigen; BCMA-Fc antigen; not shown: human Fc of the bought fusion protein
T1 sequence (looked up): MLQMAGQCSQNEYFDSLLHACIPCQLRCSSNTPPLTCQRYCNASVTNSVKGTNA

T2: human BCMA on the cell membrane surface (H929 and RPMI8226 cells) (human, UniProt Q02223 1-184)
T2 construct: whole, on cells; also called BCMA antigen on the cell membrane surface; BCMA-expressing cell line H929
T2 sequence (looked up): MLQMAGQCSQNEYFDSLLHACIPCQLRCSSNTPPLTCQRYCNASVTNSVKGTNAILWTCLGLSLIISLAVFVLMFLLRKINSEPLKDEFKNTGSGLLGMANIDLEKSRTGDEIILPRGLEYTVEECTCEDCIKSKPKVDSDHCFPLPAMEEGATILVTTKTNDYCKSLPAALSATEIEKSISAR

B1: B10.5 scFv-Fc (Fc fusion)
scFv: QVQLQQSGAEVKKPGSSVKVSCKASGGTFSKSAIHWVRQAPGQGLEWMGGVIPIFGTANYAQKFQGRVTITADESTSTAYMELSSLRSEDTAVYYCARGWYLDLWGRGTLVTVSSASTGGSSRSSSSGGGGSGGGGLPVLTQPPSASGTPGQRVTISCSGSSSNIGGYSVNWYQQFPGTAPKLLIYRNNQRPSGVPDRFSGSKSGASASLAISGLQSEDVADYYCAAWDDSLIGYVFGTGTQLTVL
notes: also called mutant B10.5; not shown: Fc (scFv-Fc)
B2: B10.9 scFv-Fc (Fc fusion)
scFv: B1 scFv with H35Q, S163N, V220E, L232E, Y235W, V236L
notes: also called mutant B10.9; not shown: Fc (scFv-Fc)
B3: B10.3 scFv-Fc (Fc fusion)
scFv: B1 scFv with H35Q, S163N, V220E, L232V, Y235W, V236L
notes: also called mutant B10.3; not shown: Fc (scFv-Fc)
B4: B10.4 scFv-Fc (Fc fusion)
scFv: B1 scFv with H35M, S163N, A208F, S217F, V220E, A227R, L232V, Y235W, F237L
notes: also called mutant B10.4; not shown: Fc (scFv-Fc)
B5: B10 parental antibody Fab (Fab, V domains shown)
VH: QVQLQQSGAEVKKPGSSVKVSCKASGGTFSSYAISWVRQAPGQGLEWMGGIIPIFGTANYAQKFQGRVTITADESTSTAYMELSSLRSEDTAVYYCARGWYFDLWGRGTLVTVSS
VL: LPVLTQPPSASGTPGQRVTISCSGSSSNIGGYSVNWYQQFPGTAPKLLIYRNNQRPSGVPDRFSGSKSGASASLAISGLQSEDEADYYCAAWDDSLIGYVFGTGTQLTVL
notes: Variable regions cloned into vector pUFL and secreted as Fab by E. coli BL21(DE3); also called Fab form of B10
B6: B10 scFv-Fc protein (B10 parental antibody) (Fc fusion)
scFv: B1 scFv with K31S, S32Y, H35S, V51I, L102F, V220E
notes: scFv gene fused with the Fc gene of human IgG4 (plasmid pFH-B10); also called clone B10; scFv-Fc protein of B10; not shown: Fc of human IgG4 from vector pFH

Substitutions are numbered along the chain they refer to.

The first assay addresses T1, BCMA-Fc fusion protein (Acrobiosystems, …). Put plainly: affinity worked out from the ELISA EC50 fold against J6 (taken as about 0.2 nM). The protocol: (§1) After antibodies with different concentrations were coated on enzyme-linked plates, the biotinylated BCMA antigen, streptavidin-conjugated horseradish peroxidase (HRP) and chromogenic substrate were added step by step. The obtained signal-antibody gradient curve is shown in Graph A of FIG. 4, and the relative affinity change fold is shown in Table 3.
Turning to B1, the Kd was determined as 0.27 nM.

As for B2, the Kd is 0.29 nM.

Regarding B3, the Kd turned out to be 0.26 nM.

On to B4, for which the dissociation constant (Kd) was determined as 0.31 nM. This Kd and that of the molecule before are within 1.5-fold of each other.

The target in another assay is T2, human BCMA on the cell membrane surface …. Put plainly: flow cytometry on RPMI8226 cells, EC50 ratio. An excerpt: (§2) In order to understand the apparent affinity of these antibodies to BCMA on the cell surface, the binding of B10 parental antibody and the finally obtained 4 mutants to BCMA-expressing cell line RPMI8226 were compared with J6 by flow cytometry (see Graph B of FIG. 4, Table 4).
For B1, the “Fold increase relative to J6” value came to 67.5 fold.

On to B2, for which the “Fold increase relative to J6” value turned out to be 60.7 fold.

As for B3, the “Fold increase relative to J6” value is 97.1 fold.

In the case of B4, the “Fold increase relative to J6” value was found to be 79.9 fold.

A further assay deals with T1, BCMA-Fc fusion protein (Acrobiosystems, …). Put plainly: ELISA, BCMA-Fc coated at 0.25 µg/ml, Fab from E. coli, HRP anti-human Fab. The protocol: The conditions of the enzyme-linked reaction were optimized through preliminary experiments, to allow the A450 absorption value of the binding of B10 parental antibody Fab to the antigen BCMA-Fc 3 times higher than the background signal. The BCMA-Fc antigen was coated at 0.25 μg/ml on the enzyme-linked plate one day in advance, and the secreted and expressed mutant Fab was added to the wells on the following day, with HRP-conjugated anti-human Fab as the second antibody, the substrate was colored, and A450 was read, to obtain clones corresponding to the wells with signals 1.5 times higher than the maximum value of the parental wells, and these clones were called hits. All hits of the light and heavy chain variable regions were collected, inducted to express and tested by ELISA to verify their affinity higher than the parental antibody. Sequence analysis of mutant regions of the plasmid of the re-positive clone was performed, to obtain the mutation information of CDR amino acids. The process was called primary screening. All mutation information in the CDR region that was beneficial to the improvement of affinity was obtained: mutation sites that improved affinity in the heavy chain variable region CDR are shown in Table 1, and those in the light chain variable region CDR are shown in Table 2.
Consider B5, for which the binding result is “binds”.

The target in a further assay is T2, human BCMA on the cell membrane surface …. Put plainly: flow cytometry on RPMI8226 cells (as the text tells it; the table gives this value to J6); flow cytometry on RPMI8226 cells; value as the text of paragraph 107 assigns it.
Turning to B6, the concentration for a half-maximal effect (EC50) is 2.74 µg/mL.

The target is the same in a further assay. Put plainly: flow cytometry on H929 cells, scFv-Fc.
Molecule B6 gave a percentage of binding of 75.3%.

The molecule B1 yielded a percentage of binding of 97.2%.

The molecule B2 showed a percentage of binding of 91.6%.

Turning to B3, the percentage of binding came to 98%.

Take B4: the percentage of binding stood at 97.9%.

The target is the same in the next assay. Put plainly: flow cytometry on RPMI8226 cells.
Text: as §2
B1 came in with an EC50 of 0.0406 µg/mL.

For the molecule B2, it took 0.0451 µg/mL to reach a half-maximal effect (EC50).

As for B3, a half-maximal response (EC50) required 0.0282 µg/mL.

Consider B4, for which the concentration for a half-maximal effect (EC50) turned out to be 0.0343 µg/mL.

The next assay shares this target. Put plainly: flow cytometry on RPMI8226 cells (as the table labels it; the text gives this value to J6).
B6 came in with a 50% effective concentration (EC50) of 1.57 µg/mL.

A further assay has the same target. Put plainly: flow cytometry on RPMI8226 cells, scFv-Fc.
The molecule B6 displayed a percentage of binding of 5.54%.

B1: the percentage of binding worked out at 58.2%.

As to B2, the percentage of binding was found to be 42.9%.

In turn, B3 had a percentage of binding of 54.9%.

Turning to B4, the percentage of binding came out at 57.5%.

A further assay concerns the target T1, BCMA-Fc fusion protein (Acrobiosystems, …). Put plainly: ELISA EC50 relative to J6. The protocol:
as §1
With B1, the “Fold of J6” value is 1.35 fold.

As for B2, the “Fold of J6” value is 1.43 fold.

B3: the “Fold of J6” value was 1.29 fold.

With B4, the “Fold of J6” value is 1.55 fold.

For another assay, the target named is T2, human BCMA on the cell membrane surface …. Put plainly: flow cytometry on RPMI8226 cells, EC50 ratio (as the table labels it).
Regarding B6, the “Fold increase relative to J6” value was 0.57 fold.
